This is an account of results in publication PMC3644067 (Nature Communications, 2013).

This experiment concerns the target T1, α4 (3–233) E206R (human, UniProt P78318 3-233, E206R).
T1 sequence (looked up): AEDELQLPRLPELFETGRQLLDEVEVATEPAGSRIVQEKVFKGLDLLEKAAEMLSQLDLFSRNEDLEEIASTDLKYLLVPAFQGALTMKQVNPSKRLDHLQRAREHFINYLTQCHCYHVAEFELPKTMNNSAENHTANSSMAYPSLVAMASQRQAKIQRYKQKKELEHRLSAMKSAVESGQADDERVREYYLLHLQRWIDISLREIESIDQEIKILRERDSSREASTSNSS
Put plainly: pull-down.

B1: GST-tagged nPP2Ac (1–153) (domain or fragment, human, UniProt P67775 1-153, looked up)
chain: MDEKVFTKELDQWIEQLNECKQLSESQVKSLCEKAKEILTKESNVQEVRCPVTVCGDVHGQFHDLMELFRIGGKSPDTNYLFMGDYVDRGYYSVETVTLLVALKVRYRERITILRGNHESRQITQVYGFYDECLRKYGNANVWKYFTDLFDYL
With B1, the binding result is “binds”.
